Laboratory results published in patent US20120270784A1 (THERATECHNOLOGIES, published 2012).

T1: human GRF receptor (human, UniProt Q02643 23-423)
T1 sequence (looked up): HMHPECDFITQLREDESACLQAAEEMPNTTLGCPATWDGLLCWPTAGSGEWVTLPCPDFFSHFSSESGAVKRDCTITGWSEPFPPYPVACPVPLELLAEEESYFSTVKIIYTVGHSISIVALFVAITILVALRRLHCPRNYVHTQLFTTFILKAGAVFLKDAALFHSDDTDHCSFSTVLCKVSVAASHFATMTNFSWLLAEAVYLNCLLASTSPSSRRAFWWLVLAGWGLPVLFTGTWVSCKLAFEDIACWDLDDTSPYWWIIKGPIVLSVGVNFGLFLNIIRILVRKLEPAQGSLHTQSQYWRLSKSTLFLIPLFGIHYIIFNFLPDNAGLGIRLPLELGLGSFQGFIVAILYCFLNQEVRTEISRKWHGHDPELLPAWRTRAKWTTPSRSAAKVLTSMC


Target: T1, human GRF receptor
Test: cell-based or functional assay

Binder	EC50 as assessed by alkaline phosphatase (AP) induction
Ac-YADAIFTDSYRKVLAQLSARKLLQDILSR-NH2 [Ac-YADAIFTDSYRKVLAQLSARKLLQDILSR-NH2 (SEQ ID NO: 43)]	250 pM
YADAIFTDSYRKVLAQLKARQDILARAAR (HELM PEPTIDE1{[CC/C=C/CC(=O)[*:2]].Y.A.D.A.I.F.T.D.S.Y.R.K.V.L.A.Q.L.K.A.R.Q.D.I.L.A.R.A.A.R.[am]}$$$$V2.0; SMILES CC/C=C/CC(=O)N[C@@H](Cc1ccc(O)cc1)C(=O)N[C@@H](C)C(=O)N[C@@H](CC(=O)O)C(=O)N[C@@H](C)C(=O)N[C@H](C(=O)N[C@@H](Cc1ccccc1)C(=O)N[C@H](C(=O)N[C@@H](CC(=O)O)C(=O)N[C@@H](CO)C(=O)N[C@@H](Cc1ccc(O)cc1)C(=O)N[C@@H](CCCNC(=N)N)C(=O)N[C@@H](CCCCN)C(=O)N[C@H](C(=O)N[C@@H](CC(C)C)C(=O)N[C@@H](C)C(=O)N[C@@H](CCC(N)=O)C(=O)N[C@@H](CC(C)C)C(=O)N[C@@H](CCCCN)C(=O)N[C@@H](C)C(=O)N[C@@H](CCCNC(=N)N)C(=O)N[C@@H](CCC(N)=O)C(=O)N[C@@H](CC(=O)O)C(=O)N[C@H](C(=O)N[C@@H](CC(C)C)C(=O)N[C@@H](C)C(=O)N[C@@H](CCCNC(=N)N)C(=O)N[C@@H](C)C(=O)N[C@@H](C)C(=O)N[C@@H](CCCNC(=N)N)C(N)=O)[C@@H](C)CC)C(C)C)[C@@H](C)O)[C@@H](C)CC) [Trans-3-hexenoyl-YADAIFTDSYRKVLAQLKARQDILARAAR-NH2 (SEQ ID NO: 26)]	130 pM
YADAIFTDSYRKVLAQLSARQDILARAARAAR (HELM PEPTIDE1{[CC/C=C/CC(=O)[*:2]].Y.A.D.A.I.F.T.D.S.Y.R.K.V.L.A.Q.L.S.A.R.Q.D.I.L.A.R.A.A.R.A.A.R.[am]}$$$$V2.0; SMILES CC/C=C/CC(=O)N[C@@H](Cc1ccc(O)cc1)C(=O)N[C@@H](C)C(=O)N[C@@H](CC(=O)O)C(=O)N[C@@H](C)C(=O)N[C@H](C(=O)N[C@@H](Cc1ccccc1)C(=O)N[C@H](C(=O)N[C@@H](CC(=O)O)C(=O)N[C@@H](CO)C(=O)N[C@@H](Cc1ccc(O)cc1)C(=O)N[C@@H](CCCNC(=N)N)C(=O)N[C@@H](CCCCN)C(=O)N[C@H](C(=O)N[C@@H](CC(C)C)C(=O)N[C@@H](C)C(=O)N[C@@H](CCC(N)=O)C(=O)N[C@@H](CC(C)C)C(=O)N[C@@H](CO)C(=O)N[C@@H](C)C(=O)N[C@@H](CCCNC(=N)N)C(=O)N[C@@H](CCC(N)=O)C(=O)N[C@@H](CC(=O)O)C(=O)N[C@H](C(=O)N[C@@H](CC(C)C)C(=O)N[C@@H](C)C(=O)N[C@@H](CCCNC(=N)N)C(=O)N[C@@H](C)C(=O)N[C@@H](C)C(=O)N[C@@H](CCCNC(=N)N)C(=O)N[C@@H](C)C(=O)N[C@@H](C)C(=O)N[C@@H](CCCNC(=N)N)C(N)=O)[C@@H](C)CC)C(C)C)[C@@H](C)O)[C@@H](C)CC) [Trans-3-hexenoyl-YADAIFTDSYRKVLAQLSARQDILARAARAAR-NH2 (SEQ ID NO: 27)]	190 pM
YADAIFTDSYRKVLAQLKARQDILARAARAAR (HELM PEPTIDE1{[CC/C=C/CC(=O)[*:2]].Y.A.D.A.I.F.T.D.S.Y.R.K.V.L.A.Q.L.K.A.R.Q.D.I.L.A.R.A.A.R.A.A.R.[am]}$$$$V2.0; SMILES CC/C=C/CC(=O)N[C@@H](Cc1ccc(O)cc1)C(=O)N[C@@H](C)C(=O)N[C@@H](CC(=O)O)C(=O)N[C@@H](C)C(=O)N[C@H](C(=O)N[C@@H](Cc1ccccc1)C(=O)N[C@H](C(=O)N[C@@H](CC(=O)O)C(=O)N[C@@H](CO)C(=O)N[C@@H](Cc1ccc(O)cc1)C(=O)N[C@@H](CCCNC(=N)N)C(=O)N[C@@H](CCCCN)C(=O)N[C@H](C(=O)N[C@@H](CC(C)C)C(=O)N[C@@H](C)C(=O)N[C@@H](CCC(N)=O)C(=O)N[C@@H](CC(C)C)C(=O)N[C@@H](CCCCN)C(=O)N[C@@H](C)C(=O)N[C@@H](CCCNC(=N)N)C(=O)N[C@@H](CCC(N)=O)C(=O)N[C@@H](CC(=O)O)C(=O)N[C@H](C(=O)N[C@@H](CC(C)C)C(=O)N[C@@H](C)C(=O)N[C@@H](CCCNC(=N)N)C(=O)N[C@@H](C)C(=O)N[C@@H](C)C(=O)N[C@@H](CCCNC(=N)N)C(=O)N[C@@H](C)C(=O)N[C@@H](C)C(=O)N[C@@H](CCCNC(=N)N)C(N)=O)[C@@H](C)CC)C(C)C)[C@@H](C)O)[C@@H](C)CC) [Trans-3-hexenoyl-YADAIFTDSYRKVLAQLKARQDILARAARAAR-NH2 (SEQ ID NO: 31)]	100 pM
YXDAIFTDSYRKVLAQLKLRQDILARAARAAR (HELM PEPTIDE1{Y.[dA].D.A.I.F.T.D.S.Y.R.K.V.L.A.Q.L.K.L.R.Q.D.I.L.A.R.A.A.R.A.A.R.[am]}$$$$V2.0; N-terminus assumed; SMILES CC[C@H](C)[C@H](NC(=O)[C@H](C)NC(=O)[C@H](CC(=O)O)NC(=O)[C@@H](C)NC(=O)[C@@H](N)Cc1ccc(O)cc1)C(=O)N[C@@H](Cc1ccccc1)C(=O)N[C@H](C(=O)N[C@@H](CC(=O)O)C(=O)N[C@@H](CO)C(=O)N[C@@H](Cc1ccc(O)cc1)C(=O)N[C@@H](CCCNC(=N)N)C(=O)N[C@@H](CCCCN)C(=O)N[C@H](C(=O)N[C@@H](CC(C)C)C(=O)N[C@@H](C)C(=O)N[C@@H](CCC(N)=O)C(=O)N[C@@H](CC(C)C)C(=O)N[C@@H](CCCCN)C(=O)N[C@@H](CC(C)C)C(=O)N[C@@H](CCCNC(=N)N)C(=O)N[C@@H](CCC(N)=O)C(=O)N[C@@H](CC(=O)O)C(=O)N[C@H](C(=O)N[C@@H](CC(C)C)C(=O)N[C@@H](C)C(=O)N[C@@H](CCCNC(=N)N)C(=O)N[C@@H](C)C(=O)N[C@@H](C)C(=O)N[C@@H](CCCNC(=N)N)C(=O)N[C@@H](C)C(=O)N[C@@H](C)C(=O)N[C@@H](CCCNC(=N)N)C(N)=O)[C@@H](C)CC)C(C)C)[C@@H](C)O) [Y-a-DAIFTDSYRKVLAQLKLRQDILARAARAAR-NH2 (SEQ ID NO: 29)]	80 pM
YADAIFTDSYRKVLAQLKARQDLLARAARAAR (HELM PEPTIDE1{[CC/C=C/CC(=O)[*:2]].Y.A.D.A.I.F.T.D.S.Y.R.K.V.L.A.Q.L.K.A.R.Q.D.L.L.A.R.A.A.R.A.A.R.[am]}$$$$V2.0; SMILES CC/C=C/CC(=O)N[C@@H](Cc1ccc(O)cc1)C(=O)N[C@@H](C)C(=O)N[C@@H](CC(=O)O)C(=O)N[C@@H](C)C(=O)N[C@H](C(=O)N[C@@H](Cc1ccccc1)C(=O)N[C@H](C(=O)N[C@@H](CC(=O)O)C(=O)N[C@@H](CO)C(=O)N[C@@H](Cc1ccc(O)cc1)C(=O)N[C@@H](CCCNC(=N)N)C(=O)N[C@@H](CCCCN)C(=O)N[C@H](C(=O)N[C@@H](CC(C)C)C(=O)N[C@@H](C)C(=O)N[C@@H](CCC(N)=O)C(=O)N[C@@H](CC(C)C)C(=O)N[C@@H](CCCCN)C(=O)N[C@@H](C)C(=O)N[C@@H](CCCNC(=N)N)C(=O)N[C@@H](CCC(N)=O)C(=O)N[C@@H](CC(=O)O)C(=O)N[C@@H](CC(C)C)C(=O)N[C@@H](CC(C)C)C(=O)N[C@@H](C)C(=O)N[C@@H](CCCNC(=N)N)C(=O)N[C@@H](C)C(=O)N[C@@H](C)C(=O)N[C@@H](CCCNC(=N)N)C(=O)N[C@@H](C)C(=O)N[C@@H](C)C(=O)N[C@@H](CCCNC(=N)N)C(N)=O)C(C)C)[C@@H](C)O)[C@@H](C)CC) [Trans-3-hexenoyl-YADAIFTDSYRKVLAQLKARQDLLARAARAAR-NH2 (SEQ ID NO: 32)]	110 pM
YXDAIFTDSYRKVLAQLKARQDLLARAARAAR (HELM PEPTIDE1{Y.[dA].D.A.I.F.T.D.S.Y.R.K.V.L.A.Q.L.K.A.R.Q.D.L.L.A.R.A.A.R.A.A.R.[am]}$$$$V2.0; N-terminus assumed; SMILES CC[C@H](C)[C@H](NC(=O)[C@H](C)NC(=O)[C@H](CC(=O)O)NC(=O)[C@@H](C)NC(=O)[C@@H](N)Cc1ccc(O)cc1)C(=O)N[C@@H](Cc1ccccc1)C(=O)N[C@H](C(=O)N[C@@H](CC(=O)O)C(=O)N[C@@H](CO)C(=O)N[C@@H](Cc1ccc(O)cc1)C(=O)N[C@@H](CCCNC(=N)N)C(=O)N[C@@H](CCCCN)C(=O)N[C@H](C(=O)N[C@@H](CC(C)C)C(=O)N[C@@H](C)C(=O)N[C@@H](CCC(N)=O)C(=O)N[C@@H](CC(C)C)C(=O)N[C@@H](CCCCN)C(=O)N[C@@H](C)C(=O)N[C@@H](CCCNC(=N)N)C(=O)N[C@@H](CCC(N)=O)C(=O)N[C@@H](CC(=O)O)C(=O)N[C@@H](CC(C)C)C(=O)N[C@@H](CC(C)C)C(=O)N[C@@H](C)C(=O)N[C@@H](CCCNC(=N)N)C(=O)N[C@@H](C)C(=O)N[C@@H](C)C(=O)N[C@@H](CCCNC(=N)N)C(=O)N[C@@H](C)C(=O)N[C@@H](C)C(=O)N[C@@H](CCCNC(=N)N)C(N)=O)C(C)C)[C@@H](C)O) [Y-a-DAIFTDSYRKVLAQLKARQDLLARAARAAR-NH2 (SEQ ID NO: 30)]	180 pM
YXDAIFTDSYRKVLAQLKARQDILARAARAAR (HELM PEPTIDE1{Y.[dA].D.A.I.F.T.D.S.Y.R.K.V.L.A.Q.L.K.A.R.Q.D.I.L.A.R.A.A.R.A.A.R.[am]}$$$$V2.0; N-terminus assumed; SMILES CC[C@H](C)[C@H](NC(=O)[C@H](C)NC(=O)[C@H](CC(=O)O)NC(=O)[C@@H](C)NC(=O)[C@@H](N)Cc1ccc(O)cc1)C(=O)N[C@@H](Cc1ccccc1)C(=O)N[C@H](C(=O)N[C@@H](CC(=O)O)C(=O)N[C@@H](CO)C(=O)N[C@@H](Cc1ccc(O)cc1)C(=O)N[C@@H](CCCNC(=N)N)C(=O)N[C@@H](CCCCN)C(=O)N[C@H](C(=O)N[C@@H](CC(C)C)C(=O)N[C@@H](C)C(=O)N[C@@H](CCC(N)=O)C(=O)N[C@@H](CC(C)C)C(=O)N[C@@H](CCCCN)C(=O)N[C@@H](C)C(=O)N[C@@H](CCCNC(=N)N)C(=O)N[C@@H](CCC(N)=O)C(=O)N[C@@H](CC(=O)O)C(=O)N[C@H](C(=O)N[C@@H](CC(C)C)C(=O)N[C@@H](C)C(=O)N[C@@H](CCCNC(=N)N)C(=O)N[C@@H](C)C(=O)N[C@@H](C)C(=O)N[C@@H](CCCNC(=N)N)C(=O)N[C@@H](C)C(=O)N[C@@H](C)C(=O)N[C@@H](CCCNC(=N)N)C(N)=O)[C@@H](C)CC)C(C)C)[C@@H](C)O) [Y-a-DAIFTDSYRKVLAQLKARQDILARAARAAR-NH2 (SEQ ID NO: 28)]	110 pM
